Source: paper doi:10.1101/2020.04.07.029496 (bioRxiv, 2020)

B1: S. cerevisiae Sec20_(1-174) (domain or fragment, UniProt P28791 1-174, looked up)
chain: MVVTFLQDLEVLQDALLNNLQKLSAISRRKESGESKHDNKDSFAAIANEHNDEEEEIEFEDLVNIIESKVSDFESVLKCSIVEMTYKYPELKLQWEKSPRYDQCDKLHIVKLDKQMNEDIYAQLVEELDFVLQFVDWFYCYRLKVKEILRQHHKRDLAWNDEKRDRAIKFHAVD

How the values were obtained:
[1] = target: E. gossypii Tip20 (residues 1-672) (E. gossypii); assay: ITC
[2] = target: T1, S. cerevisiae Tip20_(I481D,L585D) (S. cerevisiae, UniProt P33891 1-701, I481D | L585D); assay: ITC
T1 sequence: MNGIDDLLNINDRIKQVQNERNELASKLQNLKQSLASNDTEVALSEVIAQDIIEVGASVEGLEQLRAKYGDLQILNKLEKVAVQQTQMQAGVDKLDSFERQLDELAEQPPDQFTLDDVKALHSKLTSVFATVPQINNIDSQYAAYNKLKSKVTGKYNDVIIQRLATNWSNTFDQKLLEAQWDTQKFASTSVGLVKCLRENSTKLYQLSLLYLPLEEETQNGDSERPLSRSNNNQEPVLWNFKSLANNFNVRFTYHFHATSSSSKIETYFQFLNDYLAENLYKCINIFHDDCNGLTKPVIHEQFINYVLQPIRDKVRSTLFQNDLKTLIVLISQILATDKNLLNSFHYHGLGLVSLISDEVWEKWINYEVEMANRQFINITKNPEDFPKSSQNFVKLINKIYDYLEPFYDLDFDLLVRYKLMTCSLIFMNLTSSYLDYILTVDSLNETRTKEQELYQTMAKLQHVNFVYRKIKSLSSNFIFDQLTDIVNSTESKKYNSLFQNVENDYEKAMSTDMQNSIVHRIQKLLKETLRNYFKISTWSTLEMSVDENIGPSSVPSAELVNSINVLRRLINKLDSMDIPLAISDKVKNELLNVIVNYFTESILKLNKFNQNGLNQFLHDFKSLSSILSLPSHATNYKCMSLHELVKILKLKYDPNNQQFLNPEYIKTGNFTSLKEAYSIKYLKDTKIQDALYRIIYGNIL

Row | Molecule | Kd [1] [nM] | fold increase in KD against wild-type Tip20 [2] [fold]
1 | E. gossypii MBP-Sec20NTD (domain or fragment) | 100 | –
2 | B1 | – | 15
